Results published in patent US9079867B2, “Polyazamacrocyclic compound, and a production method and a biomedical use therefor” (KYUNGPOOK NATIONAL UNIVERSITY INDUSTRY-ACADEMIC COOPERATION …, priority 2010, dated 2015).
One block for each molecule: values may come before it.

Key:
[1] = Cyclic voltammetry (electrochemical experiment); assay type: physicochemical; settings: irreversible (irrev); 2 mM, 100 mV/s, 0.1 M sodium acetate pH 7.0, glassy carbon electrode
Protocol: Cyclic voltammetry was carried out by using biological model SP-150 having a 3-electrode structure. The working electrode was made of glassy carbon (diameter=3 mm), the reference electrode Ag/AgCl (saturated KCl), and the counter electrode Pt wire. A sample (2 mM) of compound (30) was operated at a scanning speed of 100 mV/s in a 0.1 M aqueous sodium acetate solution adjusted to pH 7.0 with glacial acetic acid. From the solution, oxygen was removed by bubbling Ar for 30 minutes. During the measurement, the system was maintained under Ar atmosphere.

in vivo = experiment: in vivo; set-up: species or system female nude mice; settings: female, nude, mouse, iv, 10 uCi, total radioactivity
Protocol: Compound ^64Cu-TE2A-c(RGDyK) (38) (10 μCi) in PBS (120 μl) was injected to the tails of female nude mice to which U87MG tumor had been transplanted. Two groups were examined at two time points [n=4 per group at 1 hr and 4 hr post injection (pi)]. The subject animals were sacrificed, and the relevant tissues and organs were removed and weighed. A dosimetric procedure was carried out by using a gamma-counter. The calculations were performed by comparing with a reference value of which the percentage of injected amount per gram was known.

Ered (V) for Ag/AgCl [1]: −1.05 (irrev) V
SMILES: O=C([O-])CN1CCCNCCN(CC(=O)[O-])CCCNCC1.[Cu+2] [Cu-TE2A]

SMILES: N=C(N)NCCC[C@@H]1NC(=O)[C@H](CCCCNC(=S)Nc2ccc(CCN3CCCN(CC(=O)O)CCNCCCN(CC(=O)O)CC3)cc2)NC(=O)[C@@H](Cc2ccc(O)cc2)NC(=O)[C@H](CC(=O)O)NC(=O)CNC1=O [^64Cu-TE2A-c(RGDyK), metal not drawn]
tissue uptake at 1 h (in vivo; % ID/g Blood): 0.55 ± 0.18 %ID/g | tissue uptake at 4 h (in vivo; % ID/g Blood): 0.43 ± 0.09 %ID/g | tissue uptake at 1 h (in vivo; % ID/g Bone): 0.66 ± 0.23 %ID/g | tissue uptake at 4 h (in vivo; % ID/g Bone): 0.41 ± 0.06 %ID/g | tissue uptake at 1 h (in vivo; % ID/g Fat): 1.28 ± 0.55 %ID/g | tissue uptake at 4 h (in vivo; % ID/g Fat): 1.15 ± 1.08 %ID/g | tissue uptake at 1 h (in vivo; % ID/g Intestine): 2.14 ± 0.53 %ID/g | tissue uptake at 4 h (in vivo; % ID/g Intestine): 2.17 ± 0.62 %ID/g | tissue uptake at 1 h (in vivo; % ID/g Kidney): 3.47 ± 0.61 %ID/g | tissue uptake at 4 h (in vivo; % ID/g Kidney): 2.71 ± 0.45 %ID/g | tissue uptake at 1 h (in vivo; % ID/g Liver): 5.45 ± 1.14 %ID/g | tissue uptake at 4 h (in vivo; % ID/g Liver): 4.45 ± 0.65 %ID/g | tissue uptake at 1 h (in vivo; % ID/g Lung): 1.46 ± 0.34 %ID/g | tissue uptake at 4 h (in vivo; % ID/g Lung): 1.14 ± 0.17 %ID/g | tissue uptake at 1 h (in vivo; % ID/g Muscle): 0.49 ± 0.3 %ID/g | tissue uptake at 4 h (in vivo; % ID/g Muscle): 0.24 ± 0.11 %ID/g | tissue uptake at 1 h (in vivo; % ID/g Spleen): 1.17 ± 0.46 %ID/g | tissue uptake at 4 h (in vivo; % ID/g Spleen): 1.04 ± 0.46 %ID/g | tissue uptake at 1 h (in vivo; % ID/g Stomach): 1.78 ± 0.55 %ID/g | tissue uptake at 4 h (in vivo; % ID/g Stomach): 1.03 ± 0.39 %ID/g | tissue uptake at 1 h (in vivo; % ID/g Tumor 1): 2.98 ± 0.39 %ID/g | tissue uptake at 4 h (in vivo; % ID/g Tumor 1): 3.01 ± 1 %ID/g | tissue uptake at 1 h (in vivo; % ID/g Tumor 2): 3.49 ± 1.67 %ID/g | tissue uptake at 4 h (in vivo; % ID/g Tumor 2): 3.32 ± 0.49 %ID/g
